According to the Human Domainome abundance scans (Beltran et al. 2025):
± gives the uncertainty stated by the source.

B1: Death-inducer obliterator 1, residues 263 to 321; numbered along this chain, Q9BTC0 (parent)
chain: GYDPNALYCICRQPHNNRFMICCDRCEEWFHGDCVGISEARGRLLERNGEDYICPNCTI

Variants of: B1
Assay: abundance fitness (aPCA) (normalised: wild type 0, dead -1); higher = more abundant; growth selection in yeast, the domain comes from the species named
Details: Homo sapiens

| Variant | abundance fitness |
| --- | --- |
| GYDPNALYCICRQPHNNRHMICCDRCEEWFHGDCVGISEARGRLLERNGEDYICPNCTI [F19H] | 0.062 ± 0.27 |
| GYDPNALYCICRQPHNNRYMICCDRCEEWFHGDCVGISEARGRLLERNGEDYICPNCTI [F19Y] | 0.058 ± 0.08 |
| GYDPNALYCICRQPHNNRMMICCDRCEEWFHGDCVGISEARGRLLERNGEDYICPNCTI [F19M] | -0.265 ± 0.1 |
| GYDPNALYCICRQPHNNRAMICCDRCEEWFHGDCVGISEARGRLLERNGEDYICPNCTI [F19A] | -0.182 ± 0.085 |
| GYDPNALYCICRQPHNNRWMICCDRCEEWFHGDCVGISEARGRLLERNGEDYICPNCTI [F19W] | -0.016 ± 0.082 |
| GYDPNALYCICRQPHNNRGMICCDRCEEWFHGDCVGISEARGRLLERNGEDYICPNCTI [F19G] | -0.224 ± 0.095 |
| GYDPNALYCICRQPHNNRNMICCDRCEEWFHGDCVGISEARGRLLERNGEDYICPNCTI [F19N] | -0.341 ± 0.23 |
| GYDPNALYCICRQPHNNRVMICCDRCEEWFHGDCVGISEARGRLLERNGEDYICPNCTI [F19V] | -0.166 ± 0.074 |
| GYDPNALYCICRQPHNNRPMICCDRCEEWFHGDCVGISEARGRLLERNGEDYICPNCTI [F19P] | 0.088 ± 0.076 |
| GYDPNALYCICRQPHNNRRMICCDRCEEWFHGDCVGISEARGRLLERNGEDYICPNCTI [F19R] | -0.145 ± 0.062 |
| GYDPNALYCICRQPHNNRQMICCDRCEEWFHGDCVGISEARGRLLERNGEDYICPNCTI [F19Q] | 0.048 ± 0.059 |
| GYDPNALYCICRQPHNNREMICCDRCEEWFHGDCVGISEARGRLLERNGEDYICPNCTI [F19E] | -0.291 ± 0.14 |
| GYDPNALYCICRQPHNNRIMICCDRCEEWFHGDCVGISEARGRLLERNGEDYICPNCTI [F19I] | -0.028 ± 0.08 |
| GYDPNALYCICRQPHNNRSMICCDRCEEWFHGDCVGISEARGRLLERNGEDYICPNCTI [F19S] | -0.143 ± 0.052 |
| GYDPNALYCICRQPHNNRKMICCDRCEEWFHGDCVGISEARGRLLERNGEDYICPNCTI [F19K] | -0.166 ± 0.091 |
| GYDPNALYCICRQPHNNRLMICCDRCEEWFHGDCVGISEARGRLLERNGEDYICPNCTI [F19L] | -0.016 ± 0.056 |
| GYDPNALYCICRQPHNNPFMICCDRCEEWFHGDCVGISEARGRLLERNGEDYICPNCTI [R18P] | -0.34 ± 0.15 |
| GYDPNALYCICRQPHNNCFMICCDRCEEWFHGDCVGISEARGRLLERNGEDYICPNCTI [R18C] | -0.047 ± 0.083 |
| GYDPNALYCICRQPHNNAFMICCDRCEEWFHGDCVGISEARGRLLERNGEDYICPNCTI [R18A] | -0.073 ± 0.062 |
| GYDPNALYCICRQPHNNDFMICCDRCEEWFHGDCVGISEARGRLLERNGEDYICPNCTI [R18D] | -0.167 ± 0.081 |
| GYDPNALYCICRQPHNNIFMICCDRCEEWFHGDCVGISEARGRLLERNGEDYICPNCTI [R18I] | -0.215 ± 0.17 |
| GYDPNALYCICRQPHNNWFMICCDRCEEWFHGDCVGISEARGRLLERNGEDYICPNCTI [R18W] | -0.16 ± 0.083 |
| GYDPNALYCICRQPHNNGFMICCDRCEEWFHGDCVGISEARGRLLERNGEDYICPNCTI [R18G] | 0.105 ± 0.062 |

| Variant | abundance fitness |
| --- | --- |
| GYDPNALYCICRQPHNNHFMICCDRCEEWFHGDCVGISEARGRLLERNGEDYICPNCTI [R18H] | 0.112 ± 0.096 |
| GYDPNALYCICRQPHNNMFMICCDRCEEWFHGDCVGISEARGRLLERNGEDYICPNCTI [R18M] | 0.139 ± 0.07 |
| GYDPNALYCICRQPHNNKFMICCDRCEEWFHGDCVGISEARGRLLERNGEDYICPNCTI [R18K] | 0.009 ± 0.082 |
| GYDPNALYCICRQPHNNFFMICCDRCEEWFHGDCVGISEARGRLLERNGEDYICPNCTI [R18F] | -0.24 ± 0.17 |
| GYDPNALYCICRQPHNNVFMICCDRCEEWFHGDCVGISEARGRLLERNGEDYICPNCTI [R18V] | 0.03 ± 0.052 |
| GYDPNALYCICRQPHNNQFMICCDRCEEWFHGDCVGISEARGRLLERNGEDYICPNCTI [R18Q] | 0.042 ± 0.092 |
| GYDPNALYCICRQPHNNSFMICCDRCEEWFHGDCVGISEARGRLLERNGEDYICPNCTI [R18S] | 0.104 ± 0.074 |
| GYDPNALYCICRQPHNNEFMICCDRCEEWFHGDCVGISEARGRLLERNGEDYICPNCTI [R18E] | -0.023 ± 0.11 |
| GYDPNALYCICRQPHNNYFMICCDRCEEWFHGDCVGISEARGRLLERNGEDYICPNCTI [R18Y] | 0.011 ± 0.086 |
| GYDPNALYCICRQPHNNNFMICCDRCEEWFHGDCVGISEARGRLLERNGEDYICPNCTI [R18N] | -0.168 ± 0.13 |
| GYDPNALYCICRQPHNNRFSICCDRCEEWFHGDCVGISEARGRLLERNGEDYICPNCTI [M20S] | 0.002 ± 0.051 |
| GYDPNALYCICRQPHNNRFVICCDRCEEWFHGDCVGISEARGRLLERNGEDYICPNCTI [M20V] | -0.077 ± 0.082 |
| GYDPNALYCICRQPHNNRFRICCDRCEEWFHGDCVGISEARGRLLERNGEDYICPNCTI [M20R] | -0.07 ± 0.057 |
| GYDPNALYCICRQPHNNRFYICCDRCEEWFHGDCVGISEARGRLLERNGEDYICPNCTI [M20Y] | -0.304 ± 0.18 |
| GYDPNALYCICRQPHNNRFQICCDRCEEWFHGDCVGISEARGRLLERNGEDYICPNCTI [M20Q] | -0.077 ± 0.11 |
| GYDPNALYCICRQPHNNRFTICCDRCEEWFHGDCVGISEARGRLLERNGEDYICPNCTI [M20T] | 0.053 ± 0.074 |
| GYDPNALYCICRQPHNNRFDICCDRCEEWFHGDCVGISEARGRLLERNGEDYICPNCTI [M20D] | -0.559 ± 0.28 |
| GYDPNALYCICRQPHNNRFFICCDRCEEWFHGDCVGISEARGRLLERNGEDYICPNCTI [M20F] | -0.216 ± 0.14 |
| GYDPNALYCICRQPHNNRFPICCDRCEEWFHGDCVGISEARGRLLERNGEDYICPNCTI [M20P] | -0.519 ± 0.15 |
| GYDPNALYCICRQPHNNRFCICCDRCEEWFHGDCVGISEARGRLLERNGEDYICPNCTI [M20C] | -0.209 ± 0.1 |
| GYDPNALYCICRQPHNNRFWICCDRCEEWFHGDCVGISEARGRLLERNGEDYICPNCTI [M20W] | -0.323 ± 0.12 |
| GYDPNALYCICRQPHNNRFEICCDRCEEWFHGDCVGISEARGRLLERNGEDYICPNCTI [M20E] | -0.403 ± 0.19 |
